Molecular target: Bicarbonate Transporter Related protein-1 (BTR1), human (human) (UniProt Q8NBS3)
Assay: cryo-EM structure; BTR1 in LMNG/CHS micelle buffer; 140 mmol/L KCl, pH 7.5, 3.25 Å; further structures in 11 buffer conditions (KCl, NaCl, NH4Cl, NH4Cl + NaCl, boric acid; varying pH), 13 states, inward- and outward-facing

- stoichiometry N: 2
Substance: Bicarbonate Transporter Related protein-1 (BTR1), human (from UniProt Q8NBS3 1-875) (natural protein)

Source: article PMC13107553
